Data: patent US20150359847A1, “METHOD AND COMPOSITION FOR CONFERRING NEUROPROTECTION” (BLOOD SYSTEMS RESEARCH INSTITUTE, priority 2014, published 2015)

What was measured:
MMP-2 = biological target: T1, MMP-2 (Homo sapiens, UniProt P08253); experiment: SensoLyte Fluorimetric MMP-2 Activity Assay; assay type: biochemical; conditions: dose response; 1 μg/ml TIMP3
T1 sequence (P08253 110-660): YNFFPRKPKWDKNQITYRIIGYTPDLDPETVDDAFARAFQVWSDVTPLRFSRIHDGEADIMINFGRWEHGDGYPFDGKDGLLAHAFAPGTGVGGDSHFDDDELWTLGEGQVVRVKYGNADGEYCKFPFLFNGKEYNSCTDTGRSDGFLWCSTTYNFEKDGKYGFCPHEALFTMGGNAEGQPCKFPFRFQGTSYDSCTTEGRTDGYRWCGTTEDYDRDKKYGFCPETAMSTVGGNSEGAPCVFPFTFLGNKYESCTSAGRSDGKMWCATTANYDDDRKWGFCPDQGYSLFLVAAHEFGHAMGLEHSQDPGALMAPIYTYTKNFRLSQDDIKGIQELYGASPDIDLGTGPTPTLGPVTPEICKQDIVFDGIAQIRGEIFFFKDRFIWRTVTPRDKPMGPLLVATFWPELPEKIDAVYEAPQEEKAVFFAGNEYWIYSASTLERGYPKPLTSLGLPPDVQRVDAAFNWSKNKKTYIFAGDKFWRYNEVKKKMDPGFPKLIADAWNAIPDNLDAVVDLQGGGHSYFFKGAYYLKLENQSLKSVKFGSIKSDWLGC
Text: SensoLyte Fluorimetric MMP-2 Activity Assay Kit™ (Cat#71151) and SensoLyte Fluorimetric MMP-9 Activity Assay Kit™ (Cat#71155) were purchased from AnaSpec (Fremont, Calif.) and performed per manufacturer's instructions.

[1] = tested on: phospho-AKT(Ser473) in SH-SY5Y cells; experiment: Akt (Ser473) phosphorylation in differentiated SH-SY5Y cells (antibody array, western blot, Phosflow); assay type: cell-based, human
Description: SH-SY5Y cells were obtained from ATCC (Cat# CRL-2266, Manassas, Va.) and were cultured in DMEM and 10% FBS up to passage 10. For differentiation of SH-SY5Y cells into a neuronal phenotype, cells were first plated in DMEEM+10% FBS for 24 hrs before exchanging media in DMEM+1% FBS 10 μM retinoic acid. Differentiation was performed for 3 days before experimentation. Hippocampal neurons were prepared according to the protocol by Beaudoin et al. (Nature Protocols 2012; 7(9):1741-1754) with minor modifications. In brief, after trypsin digestion of hippocampi isolated from P1 mouse pups single cell suspensions was created by trituration and plated onto Biocoat™ poly-D-lysine coated 12-well plates (Cat#354470, BD Biosciences, San Jose, Calif.). 2 pups were used per well and cell suspensions were incubated for 10 minutes per well for a total of 6 wells. The serial incubation allowed for variation in cell densities applicable to different experiments but also contributed to the reduction in non-neuronal cells. Typically wells 1-2 were pooled for western blotting and wells 4-5 were used for imaging following treatments. After the initial plating cells were incubated for 2 hrs before media was completely exchanged for maintenance media that was supplemented with 1 μM of the anti-mitotic cytosine arabinoside in order to further reduce non-neuronal cells. For western blot, cells were cultured for 7 days before experimentation. Half of maintenance media was exchanged on day 2 and day 5. For morphology experiments, treatments were initiated upon the introduction of maintenance media and was renewed 48 hrs later for a further 24 hrs of treatment. Experiments were terminated by fixation for 20 minutes with 4% paraformaldehyde after which cells were stored at 4° C. in PBS prior to staining protocols.
(§1) Pathscan Antibody™ array kits were purchased from Cell Signaling Technologies (Danvers, Mass.). PathScan® RTK signaling antibody array kit (Fluorescent Readout, Cat#7949) and PathScan™ Akt signaling antibody array kit (Fluorescent Readout, Cat#9700) were performed as per manufacturer's instructions. Imaging was performed on a LI-COR Odyssey™ infrared scanner and pixel densities measured by in house LI-COR Image™ suite software.
After experimentation, SH-SY5Y cells were detached from culture ware via trypsin digestion and rapidly mixed with an equal volume of BD cytofix fixation buffer (Cat#554655. BD Biosciences, San Jose, Calif.). After wash steps with PBS cells were permeabilized with BD phosflow Perm Buffer III (Cat#558050. BD Biosciences, San Jose, Calif.) and incubated on ice for 30 mins. After washing in BD stain buffer (Cat#554657. BD Biosciences, San Jose, Calif.) cells were counted and 1×10^6 cells were used antibody incubation. Negative IgG compensation control was obtained using ABC control beads (Cat# A10344. Life Technologies, Grand Island, N.Y.). Antibody incubations were conducted for 30 mins at RT in the dark. Following wash steps the volume was adjusted to 500 μl and results obtained using and LSR II flow cytometer and analyzed using Flowjo™ cytometric analytical software version 8.8.7.
Cell lysates for western blotting were prepared with RIPA buffer (Cat#89900. Thermofisher Scientific, Rockford, Ill.) supplemented with phosphatase inhibitor cocktail 2 (Cat# P5726. Sigma, St Louis, Mo.), phosphatase inhibitor cocktail 3 (Cat# P0044. Sigma, St Louis, Mo.) and complete protease inhibitor (Cat#1862209. Thermofisher Scientific, Rockford, Ill.). Complete homogenization was ensured by brief sonication using a Branson Sonifier 150, (Branson Ultrasonics Corporation, Danbury, Conn.). Protein content was quantified with a Pierce BCA protein assay kit per manufacturer's instructions (Cat#23225. Thermofisher Scientific, Rockford, Ill.).
Lysates was analyzed in conjuncture with the LI-COR Odyssey™ infra-red imaging system. […]

[2] = tested on: p-AKT(Ser473) in primary hippocampal neurons; experiment: Akt (Ser473) phosphorylation in primary hippocampal neurons (antibody array, western blot); assay type: cell-based, mouse; conditions: 1 μg/ml TIMP3, 15 mins
Description: SH-SY5Y cells were obtained from ATCC (Cat# CRL-2266, Manassas, Va.) and were cultured in DMEM and 10% FBS up to passage 10. For differentiation of SH-SY5Y cells into a neuronal phenotype, cells were first plated in DMEEM+10% FBS for 24 hrs before exchanging media in DMEM+1% FBS 10 μM retinoic acid. Differentiation was performed for 3 days before experimentation. Hippocampal neurons were prepared according to the protocol by Beaudoin et al. (Nature Protocols 2012; 7(9):1741-1754) with minor modifications. In brief, after trypsin digestion of hippocampi isolated from P1 mouse pups single cell suspensions was created by trituration and plated onto Biocoat™ poly-D-lysine coated 12-well plates (Cat#354470, BD Biosciences, San Jose, Calif.). […]
as §1, with “software. […]” for “software.”
Lysates was analyzed in conjuncture with the LI-COR Odyssey™ infra-red imaging system. […] After further wash steps images were obtained using a LI-COR™ Odyssey scanner and quantified using LI-COR™ Image Studio software. […]

B1: TIMP3: Recombinant tissue inhibitor of matrix metalloproteinase-3, a soluble protein released by MSCs, obtained from Amgen Inc. (protein)
chain: CTCSPSHPQDAFCNSDIVIRAKVVGKKLVKEGPFGTLVYTIKQMKMYRGFTKMPHVQYIHTEASESLCGLKLEVNKYQYLLTGRVYDGKMYTGLCNFVERWDQLTLSQRKGLNYRYHLGCNCKIKSCYYLPCFVTSKNECLWTDMLSNFGYPGYQSKHYACIRQKGGYCSWYRGWAPPDKSIINATDP
MMP-2 inhibition (Sensolyte FRET assay) (MMP-2): can fully inhibit | p-AKT(Ser473), Phosflow cytometry ([1]; 1 μg/ml TIMP3, 15 mins): activates p-AKT(Ser^473) | p-AKT(Ser473), western blot ([1]; 1 μg/ml TIMP3, 15 mins): activates p-AKT(Ser^473) | phospho-AKT(Ser473), fluorescent antibody signaling array ([1]; 1 μg/ml TIMP3, 15 mins): activates phospho-AKT(Ser^473) | p-AKT(Ser473), Phosflow cytometry ([1]; 1 μg/ml TIMP3, 45 minutes): activates p-AKT(Ser^473) | p-AKT(Ser473), fluorescent antibody signaling array [2]: activates p-AKT(Ser^473) | p-AKT(Ser473), western blot [2]: activates p-AKT(Ser^473)
